# Source: US20160185837A1 (AstraZeneca / MedImmune, published 2016)
# Residue numbers refer to the chain shown, from its start.
# B1: IP328 (Fc fusion)
# chain: YSEGTFTSDYSKLLEEEAVRLFIEWLLAGGGGGGGSGGGGSGGGGSGGGGSGGGGSGGGGSGGGGSGGGGSA
# B2: IP371 (Fc fusion)
# chain: YSEGMHTSDLSKLLEEEAVRLFIEWLLAGGGGGGGSGGGGSGGGGSGGGGSACPPC
# B3: IP354 (Fc fusion)
# chain: YSEGMHTSDFSKLLEEEAVRLFIEWLLAGGGGGGSGGGGSGGGGSGGGGSATHTCPPC
# B4: IP358 (Fc fusion)
# chain: B3 chain with M5T, H6F
# B5: IP361 (Fc fusion)
# chain: B3 chain with M5T, H6F, F10Y, S11R, K12I, L14K
# B6: IP362 (Fc fusion)
# chain: B3 chain with M5T, H6F, F10Y, S11M, K12M, L14K
# B7: IP370 (Fc fusion)
# chain: B3 chain with M5T, H6F, D9L, F10Y, L14K
# B8: IP355 (Fc fusion)
# chain: B3 chain with M5T, D9L
# B9: IP357 (Fc fusion)
# chain: B3 chain with M5T, H6F, W25F
# B10: IP360 (Fc fusion)
# chain: B3 chain with M5T, H6F, F10Y, S11R, K12I
# B11: IP363 (Fc fusion)
# chain: B3 chain with M5T, H6F, F10Y, S11R, K12M, L14K
# Target: T1, mouse GLP-1 receptor (mouse, UniProt O35659 22-463)
# T1 sequence (looked up): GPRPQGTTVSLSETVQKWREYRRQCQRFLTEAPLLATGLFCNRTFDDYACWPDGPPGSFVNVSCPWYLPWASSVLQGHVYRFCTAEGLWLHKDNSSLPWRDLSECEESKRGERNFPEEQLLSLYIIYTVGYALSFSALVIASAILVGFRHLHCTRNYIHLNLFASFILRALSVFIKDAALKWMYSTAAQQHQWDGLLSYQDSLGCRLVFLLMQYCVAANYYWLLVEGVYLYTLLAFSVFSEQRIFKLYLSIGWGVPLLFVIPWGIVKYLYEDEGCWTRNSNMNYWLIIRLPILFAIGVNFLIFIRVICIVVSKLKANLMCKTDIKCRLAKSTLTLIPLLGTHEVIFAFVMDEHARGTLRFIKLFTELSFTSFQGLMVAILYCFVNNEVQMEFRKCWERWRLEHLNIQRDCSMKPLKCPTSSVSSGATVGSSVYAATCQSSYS
# Test: cell-based or functional assay
Binder,cAMP EC50,"cAMP EC50, Batch 2"
B1,3.9 nM,1.3 nM
B2,8.5 nM,
B3,13 nM,
B4,1.1 nM,
B5,170 nM,
B6,11 nM,
B7,13 nM,
B8,220 nM,
B9,1.1 nM,
B10,1.2 nM,
B11,11 nM,

# Target: human glucagon receptor (human, UniProt P47871 26-477)
# Test: cell-based or functional assay
Binder,cAMP EC50,"cAMP EC50, Batch 2"
B1,43 nM,13 nM
B2,> 6560 nM,
B3,> 7370 nM,
B4,140 nM,
B5,> 6200 nM,
B6,> 4960 nM,
B7,> 9490 nM,
B8,> 527 nM,
B9,110 nM,
B10,63 nM,
B11,560 nM,

# Target: T2, rat GIP receptor (rat, UniProt P43219 19-455)
# T2 sequence (looked up): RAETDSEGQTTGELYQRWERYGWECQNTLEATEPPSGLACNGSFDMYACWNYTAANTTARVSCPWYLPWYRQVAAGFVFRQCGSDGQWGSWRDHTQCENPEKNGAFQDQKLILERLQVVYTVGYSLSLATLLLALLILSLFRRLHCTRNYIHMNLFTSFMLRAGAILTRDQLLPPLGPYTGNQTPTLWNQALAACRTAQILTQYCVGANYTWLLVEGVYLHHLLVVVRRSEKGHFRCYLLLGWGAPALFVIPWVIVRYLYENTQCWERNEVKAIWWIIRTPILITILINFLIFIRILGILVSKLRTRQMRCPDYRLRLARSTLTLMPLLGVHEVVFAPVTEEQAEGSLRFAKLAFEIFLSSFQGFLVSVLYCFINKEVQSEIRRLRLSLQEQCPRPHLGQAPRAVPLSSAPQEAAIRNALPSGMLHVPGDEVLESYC
# Test: cell-based or functional assay
Binder,cAMP EC50,"cAMP EC50, Batch 2"
B1,0.17 nM,0.092 nM
B2,0.21 nM,
B3,0.74 nM,
B4,0.049 nM,
B5,0.038 nM,
B6,0.083 nM,
B7,0.13 nM,
B8,0.5 nM,
B9,0.067 nM,
B10,0.033 nM,
B11,0.045 nM,

# Target: human GLP-1 receptor (human, UniProt P43220 24-463)
# Test: cell-based or functional assay
Binder,cAMP EC50,"cAMP EC50, Batch 2"
B1,1.2 nM,0.33 nM
B2,0.48 nM,
B3,1.4 nM,
B4,0.24 nM,
B5,3.4 nM,
B6,1.7 nM,
B7,0.62 nM,
B8,8.8 nM,
B9,0.27 nM,
B10,0.31 nM,
B11,0.98 nM,

# Target: T3, mouse GIP receptor (mouse, UniProt Q0P543 19-460)
# T3 sequence (looked up): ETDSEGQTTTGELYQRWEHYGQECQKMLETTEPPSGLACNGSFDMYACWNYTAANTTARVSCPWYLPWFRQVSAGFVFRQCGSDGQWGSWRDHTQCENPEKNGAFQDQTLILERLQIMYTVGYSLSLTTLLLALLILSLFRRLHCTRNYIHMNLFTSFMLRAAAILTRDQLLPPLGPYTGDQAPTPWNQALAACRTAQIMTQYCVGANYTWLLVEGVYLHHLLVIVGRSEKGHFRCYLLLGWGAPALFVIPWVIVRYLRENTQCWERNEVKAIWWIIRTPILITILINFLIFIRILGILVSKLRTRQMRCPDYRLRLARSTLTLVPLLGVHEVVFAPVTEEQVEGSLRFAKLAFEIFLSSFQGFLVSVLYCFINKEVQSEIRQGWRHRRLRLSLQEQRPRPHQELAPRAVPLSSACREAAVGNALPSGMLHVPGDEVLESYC
# Test: cell-based or functional assay
Binder,cAMP EC50,"cAMP EC50, Batch 2"
B1,5.4 nM,2.2 nM
B2,280 nM,
B3,270 nM,
B4,12 nM,
B5,0.19 nM,
B6,1.1 nM,
B7,0.48 nM,
B8,17 nM,
B9,16 nM,
B10,0.36 nM,
B11,0.31 nM,

# Target: T4, rat GLP-1 receptor (rat, UniProt P32301 22-463)
# T4 sequence (looked up): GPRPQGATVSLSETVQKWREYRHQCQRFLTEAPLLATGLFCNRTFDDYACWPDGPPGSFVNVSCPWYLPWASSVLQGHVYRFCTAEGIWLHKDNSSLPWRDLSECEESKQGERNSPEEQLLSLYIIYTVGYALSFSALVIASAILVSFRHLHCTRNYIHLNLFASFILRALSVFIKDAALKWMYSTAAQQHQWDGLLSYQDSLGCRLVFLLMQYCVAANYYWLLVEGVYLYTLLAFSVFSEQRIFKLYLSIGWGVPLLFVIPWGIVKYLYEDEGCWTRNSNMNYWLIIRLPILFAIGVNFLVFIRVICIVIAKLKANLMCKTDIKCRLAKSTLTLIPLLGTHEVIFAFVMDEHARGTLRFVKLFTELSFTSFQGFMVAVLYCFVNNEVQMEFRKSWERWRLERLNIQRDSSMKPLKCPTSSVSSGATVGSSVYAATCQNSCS
# Test: cell-based or functional assay
Binder,cAMP EC50,"cAMP EC50, Batch 2"
B1,0.21 nM,0.12 nM
B2,1.1 nM,
B3,3.6 nM,
B4,0.15 nM,
B5,18 nM,
B6,1.1 nM,
B7,0.35 nM,
B8,20 nM,
B9,0.13 nM,
B10,0.15 nM,
B11,1.4 nM,

# Target: T5, human GIP receptor (human, UniProt P48546 22-466)
# T5 sequence (looked up): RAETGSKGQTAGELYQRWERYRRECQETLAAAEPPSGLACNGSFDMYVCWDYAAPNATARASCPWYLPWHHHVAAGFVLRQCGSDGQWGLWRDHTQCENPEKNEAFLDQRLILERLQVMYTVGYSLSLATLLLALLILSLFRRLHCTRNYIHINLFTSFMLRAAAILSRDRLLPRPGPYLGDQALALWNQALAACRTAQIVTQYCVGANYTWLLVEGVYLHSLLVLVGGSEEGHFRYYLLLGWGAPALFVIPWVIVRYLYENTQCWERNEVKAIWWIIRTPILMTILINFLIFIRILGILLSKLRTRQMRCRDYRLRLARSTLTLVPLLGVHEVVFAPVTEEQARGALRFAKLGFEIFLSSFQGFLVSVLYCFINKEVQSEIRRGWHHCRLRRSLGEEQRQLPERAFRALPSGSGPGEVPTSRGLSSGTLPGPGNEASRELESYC
# Test: cell-based or functional assay
Binder,cAMP EC50,"cAMP EC50, Batch 2","cAMP EC50, hGIPr (C3) line"
B1,0.085 nM,0.033 nM,
B2,0.011 nM,,
B3,0.024 nM,,
B4,0.0094 nM,,
B5,0.082 nM,,
B6,0.061 nM,,
B7,0.19 nM,,
B8,0.17 nM,,
B9,0.014 nM,,
B10,0.016 nM,,2.5 nM
B11,0.056 nM,,
